This passage reports Pesudo ka results from patent US20180142016A1.

This experiment concerns the target human ROR1 extracellular domain (ECD) protein (human) (UniProt Q01973). Put plainly: ForteBio Octet; pseudo association rate of Wnt5a binding to ROR1 in the presence of the negative control antibody, not a rate of the antibody itself.

human ROR1 extracellular domain (ECD) protein (human), sequence (Q01973 30-406 limits assumed): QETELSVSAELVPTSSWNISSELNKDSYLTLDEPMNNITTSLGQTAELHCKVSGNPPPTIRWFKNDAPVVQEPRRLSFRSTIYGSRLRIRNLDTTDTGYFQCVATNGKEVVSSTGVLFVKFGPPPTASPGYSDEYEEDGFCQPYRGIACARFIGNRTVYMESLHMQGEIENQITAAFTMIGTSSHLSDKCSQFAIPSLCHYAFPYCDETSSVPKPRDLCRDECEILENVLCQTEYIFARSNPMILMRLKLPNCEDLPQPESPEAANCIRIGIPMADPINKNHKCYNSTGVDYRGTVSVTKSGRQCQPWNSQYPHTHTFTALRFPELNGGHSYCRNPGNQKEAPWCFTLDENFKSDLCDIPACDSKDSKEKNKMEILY

mAb Control (antibody): the Pesudo ka amounted to 21000 M⁻¹ s⁻¹.
